Measurements published in US20130289246A1 (VANDERBILT UNIVERSITY, published 2013).
Read-outs that look alike come from different tables or passages of the source.

Assays:
[1] = biological target: HA of A/Ann Arbor/7/1967 (H2N2) virus (Influenza A virus (H2N2)); test: cell-based or functional assay
[2] = biological target: HA of A/swine/Missouri/2124514/2006 (H2N3) virus (Influenza A virus (H2N3)); test: cell-based or functional assay
[3] = biological target: T1, HA of A/California/04/2009 (H1N1) virus (Influenza A virus (H1N1)); test: cell-based or functional assay
[4] = biological target: HA of A/Ann Arbor/23/1957 (H2N2) virus (Influenza A virus (H2N2)); test: cell-based or functional assay
[5] = biological target: HA of A/Albany/6/1958 (H2N2) virus (Influenza A virus (H2N2)); test: cell-based or functional assay
[6] = biological target: HA of A/Netherlands/65/1963 (H2N2) virus (Influenza A virus (H2N2)); test: cell-based or functional assay
[7] = biological target: HA of A/Rockville Illinois/5/1957 (H2N2) virus (Influenza A virus (H2N2)); test: cell-based or functional assay
[8] = biological target: HA of A/Japan/305/1957 (H2N2) virus (Influenza A virus (H2N2), UniProt P03451 16-562); test: cell-based or functional assay
[9] = biological target: HA of A/Hong Kong/1/1968 (H3N2) virus (Influenza A virus (H3N2), UniProt Q91MA7 17-566); test: cell-based or functional assay
[10] = biological target: HA of A/Vietnam/1203/2004 (H5N1) virus (Influenza A virus (H5N1)); test: cell-based or functional assay
[11] = biological target: T2, recombinant soluble 1968 H3 HA (A/Aichi/2/1968) (Influenza A virus A/Aichi/2/1968 (H3N2), UniProt P03437 17-530); test: ELISA, supernate
[12] = biological target: T3, recombinant soluble trimeric 1918 H1 HA (A/South Carolina/1/1918, wild type) (Influenza A virus A/South …, UniProt Q9WFX3 18-529); test: ELISA, supernate
[13] = biological target: T4, HA of A/USSR/92/1977 (H1N1) virus (Influenza A virus (H1N1)); test: cell-based or functional assay
[14] = biological target: T5, HA of A/New Caledonia/20/1999 (H1N1) virus (Influenza A virus (H1N1)); test: cell-based or functional assay
[15] = biological target: T6, HA of A/Weiss/1943 (H1N1) virus (Influenza A virus (H1N1)); test: cell-based or functional assay
[16] = biological target: T7, HA of A/New Jersey/11/1976 (H1N1) virus (Influenza A virus (H1N1)); test: cell-based or functional assay
[17] = biological target: T1, HA of A/California/04/2009 (H1N1) virus; test: cell-based or functional assay; remark: listed apart in the source
[18] = biological target: T8, HA of A/swine/Iowa/15/1930 (H1N1) virus (Influenza A virus (H1N1)); test: cell-based or functional assay
[19] = biological target: T9, HA of A/Brisbane/59/2007 (H1N1) virus (Influenza A virus (H1N1)); test: cell-based or functional assay
[20] = biological target: T10, HA of A/South Carolina/1/1918 (H1N1), wild type, on VLP (Influenza A virus A/South …, UniProt Q9WFX3 18-566); test: cell-based or functional assay
[21] = biological target: T11, HA of A/L3/1947 (H1N1) virus (Influenza A virus (H1N1)); test: cell-based or functional assay
[22] = biological target: T2, recombinant soluble 1968 H3 HA …; test: ELISA, unconcentrated supernate
[23] = biological target: T2, recombinant soluble 1968 H3 HA …; test: ELISA, supernate; remark: listed apart in the source
[24] = biological target: T3, recombinant soluble trimeric 1918 H1 HA …; test: ELISA, supernate; remark: listed apart in the source
[25] = biological target: HA of A/Alabama/1/1981 (H3N2) virus (Influenza A virus (H3N2)); test: cell-based or functional assay
[26] = biological target: T4, HA of A/USSR/92/1977 (H1N1) virus; test: cell-based or functional assay; remark: listed apart in the source
[27] = biological target: T5, HA of A/New Caledonia/20/1999 (H1N1) …; test: cell-based or functional assay; remark: listed apart in the source
[28] = biological target: T6, HA of A/Weiss/1943 (H1N1) virus; test: cell-based or functional assay; remark: listed apart in the source
[29] = biological target: T7, HA of A/New Jersey/11/1976 (H1N1) virus; test: cell-based or functional assay; remark: listed apart in the source
[30] = biological target: T1, HA of A/California/04/2009 (H1N1) virus; test: cell-based or functional assay; remark: listed apart in the source
[31] = biological target: T8, HA of A/swine/Iowa/15/1930 (H1N1) virus; test: cell-based or functional assay; remark: listed apart in the source
[32] = biological target: T9, HA of A/Brisbane/59/2007 (H1N1) virus; test: cell-based or functional assay; remark: listed apart in the source
[33] = biological target: T10, HA of A/South Carolina/1/1918 (H1N1), …; test: cell-based or functional assay; remark: listed apart in the source
[34] = biological target: T11, HA of A/L3/1947 (H1N1) virus; test: cell-based or functional assay; remark: listed apart in the source
[35] = biological target: T3, recombinant soluble trimeric 1918 H1 HA …; test: ELISA, supernate; remark: listed apart in the source
[36] = biological target: T3, recombinant soluble trimeric 1918 H1 HA …; test: biolayer interferometry (Octet Red), His-tagged HA on anti-Penta-HIS tips

B1: mAb 8F8 (antibody, V domains shown)
VH: EVQLLESGGGVVQPGRSLRLSCAASGFMFSSYVMHWVRQPPGKGLEWVAVIWYDGSKTYFADSMRGRLTVSRDNSKNALYLQMNRLRAEDTAVYYCARQQDSGYSGPEVSYYSHYGMDVWGQGTTVIVS
VL: QSVLTQSPSASGTPGRAITISCSGSSSNIGSNPVNWYQQLPGAAPKLLIYADEHRPSGVPDRFSGPKSGTSASLAISGLQSEDEADYYCAAWDDSLSGPAVVFGGGTKLTVLG
HAI activity [1]: > 20 µg/mL
HAI activity [2]: 0.63 µg/mL
HAI activity [3]: > 20 µg/mL
HAI activity [4]: 0.1 µg/mL
HAI activity [5]: 0.32 µg/mL
HAI activity [6]: 0.1 µg/mL
HAI activity [7]: 0.4 µg/mL
HAI activity [8]: 0.4 µg/mL
HAI activity [9]: > 20 µg/mL
HAI activity [10]: > 20 µg/mL
OD [11]: 0.079 OD
OD [12]: 0.07 OD

B2: mAb 4A10 (antibody, V domains shown)
VH: EVQLVESGGGLVQPGGSLRLSCAASGFSFSSYWMTWVRQAPGKGLEWVANIKQYGSEKYYVDSVKGRFTISRDNAKNSLYLQMNSLRDDDTAVYYCARMGSYLDTYYYHYGMDVWGQGTTVTVS
VL: QSVLTQPPSLSGAPGQRVTISCTGSSSNIGADYDVYWYQHLPGTAPKLLMYGDGYRPSGVPDRFSGSKSGTSASLAITGLQAEDEADYYCQSYDSSLSRRVVFGGGTKLTVLG
HAI activity [13]: 0.32 µg/mL
HAI activity [14]: > 20 µg/mL
HAI activity [15]: > 20 µg/mL
HAI activity [16]: 2.5 µg/mL
HAI activity [17]: 0.16 µg/mL
HAI activity [18]: 0.63 µg/mL
HAI activity [19]: > 20 µg/mL
HAI activity [20]: 0.08 µg/mL
HAI activity [21]: > 20 µg/mL
binding result [22]: no binding
OD [23]: 0.072 OD
OD [24]: 0.725 OD

B3: mAb 2O10 (antibody, V domains shown)
VH: EVQLVESGGGLVQPGGSLRLSCAASGFTFNSYWMTWVRQAPGKGLEWVANINQDGSEKFFVDSVKGRFTISRDNAKTSLYLQMNSLRVEDTAVYYCAREGAPYDTYYYYYAMDVWGQGTTVTVS
VL: QSVLTQPPSVSGAPGQRVTISCTGTSSNIGAGYGVHWYQQLPGAAPKLLVYGNSNRPSGVPDRFSGSKSGTSASLAITGLQAEDEADYYCQSYDISLSGSNVFGTGTKVTVLG
HAI activity [13]: 2.5 µg/mL
HAI activity [14]: > 20 µg/mL
HAI activity [15]: > 20 µg/mL
HAI activity [16]: 2.5 µg/mL
HAI activity [17]: 0.32 µg/mL
HAI activity [18]: 0.08 µg/mL
HAI activity [19]: > 20 µg/mL
HAI activity [20]: 0.04 µg/mL
HAI activity [21]: > 20 µg/mL
binding result [22]: no binding
OD [23]: 0.077 OD
OD [24]: 0.308 OD

B4: mAb 2K11 (antibody, V domains shown)
VH: EVQLVESGGGLVQPGGSLRLSCVASTFSLINYWMTWVRQAPGKGLEWVANIKQDGFEKYYVDSVKGRFTISRDNAKNSLYLQMNSLRVEDTAVYYCARQGSYADTYFYHYGMDVWGQGTTVTVS
VL: QSALTQPPSVSGAPGQRVTISCTGSSSNIGAGYDAYWYQQLPGTAPKLLIYGNSNRLSGVPDRFSASKSGTSASLAITGLQAEDEADYYCQSYDSSLSIFGGGTKLTVLR
HAI activity [13]: 0.32 µg/mL
HAI activity [14]: > 20 µg/mL
HAI activity [15]: > 20 µg/mL
HAI activity [16]: 1.3 µg/mL
HAI activity [17]: 0.63 µg/mL
HAI activity [18]: 0.16 µg/mL
HAI activity [19]: > 20 µg/mL
HAI activity [20]: 0.16 µg/mL
HAI activity [21]: > 20 µg/mL
binding result [22]: no binding
OD [23]: 0.08 OD
OD [24]: 0.311 OD

B5: mAb 2G1 (antibody, V domains shown)
VH: EVQLVESGAEVKKPGSSVKVSCKASGGTFITHVFTWVRQAPGQGLEWVGGFIAIFGTSNYAQKFQGRVTITADESTSTAYMELTSLTSEDTAVYYCARGISGSYGWFDPWGQGTLVTVS
VL: DIQLTQSPSSLSASVGDRVTITCQASQDIRKYLNWYQQKPGKAPNLLIYDASNVKTGVPSRFRGSGSGTDFTFTISSLQPEDIATYYCQQYDNLPITFGQGTRLEIKR
HAI activity [1]: > 20 µg/mL
HAI activity [25]: > 50 µg/mL
HAI activity [2]: 0.63 µg/mL
HAI activity [3]: > 50 µg/mL
HAI activity [4]: 0.025 µg/mL
HAI activity [5]: 0.32 µg/mL
HAI activity [6]: 0.05 µg/mL
HAI activity [7]: 0.2 µg/mL
HAI activity [8]: 0.7 µg/mL
HAI activity [9]: 5 µg/mL
HAI activity [10]: > 50 µg/mL

B6: mAb 5J8 (antibody, V domains shown)
VH: EVQLVESGPGLVKPSDILSLTCAVSGYSISSNYYWGWIRQPPGKGLEWIGSIYHSGSTYYKPSLESRLGISVDTSKNQFSLKLSFVSAADTAVYYCARHVRSGYPDTAYYFDKWGQGTLVTVS
VL: SYVLTQPPSVSVAPGETARISCGGNNIGTKVLHWYQQTPGQAPVLVVYDDSDRPSGIPERFSGSNSGNTATLTISRVEVGDEADYYCQVWDISTDQAVFGGGTKLTVLG
binding result [22]: no binding
HAI activity [26]: 0.63 µg/mL
Neut titer [26]: 0.2 µg/mL
HAI activity [27]: > 20 µg/mL
Neut titer [27]: > 20 µg/mL
HAI activity [28]: 5 µg/mL
Neut titer [28]: 10 µg/mL
HAI activity [29]: 0.32 µg/mL
HAI activity [30]: 0.09 µg/mL
Neut titer [30]: 0.0017 µg/mL
HAI activity [31]: 0.04 µg/mL
Neut titer [31]: < 0.025 µg/mL
HAI activity [32]: > 20 µg/mL
HAI activity [33]: 0.04 µg/mL
HAI activity [34]: 0.08 µg/mL
Neut titer [34]: 0.1 µg/mL
OD [23]: 0.078 OD
OD [24]: 0.262 OD

B7: mAb 6J24 (antibody, V domains shown)
VH: EVQLVESGGGLVQPGRSLRLSCVGSGFNFDGYAMQWVRQVPGKGLEWVSGISWHSDSTGYADSVRGRFTISRDNAKNSLYLQMDSLRPEDTAFYYCGKSIGHVGGSYRHPIDYWGQGTLVTVS
VL: DIQLTQSPSSLSASVGDRVTITCRASQGITDYLAWYQQKPGTIPKLLIYAASTLQSGVPSRFSGGGYGTDFTLTISSLQPEDVATYYCQKYNSAPLTFGGGTKVEIKR
OD [35]: 0.072 OD

B8: 5J8 Fab (Fab, V domains shown)
VH: B6 VH
VL: B6 VL
Kd [36]: 190 nM
koff [36]: 0.036 s⁻¹
kon [36]: 200000 M⁻¹ s⁻¹
